Our source for the Y586通道PE荧光值 values is patent CN114106174A.

The assay concerns the target OX40 on OX40-overexpressing cells (OX40过表达细胞表面OX40) (UniProt P43489). The assay can be described thus: flow cytometry, positive control at 1 microgram/ml on OX40-overexpressing cells, goat anti-mouse IgG-PE. Background: A flow cytometer gives signals particle by particle.
Sequence of UniProt P43489 (P43489 29-277 limits assumed): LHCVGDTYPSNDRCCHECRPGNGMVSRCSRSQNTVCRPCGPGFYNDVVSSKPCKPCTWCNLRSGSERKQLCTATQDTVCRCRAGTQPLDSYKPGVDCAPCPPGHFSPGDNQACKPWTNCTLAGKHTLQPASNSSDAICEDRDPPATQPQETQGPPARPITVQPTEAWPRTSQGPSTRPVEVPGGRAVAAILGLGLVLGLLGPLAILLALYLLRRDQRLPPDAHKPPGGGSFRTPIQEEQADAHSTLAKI

For “抗-OX40抗体 (clone ACT35, Biolegend) (antibody)”, the Y586通道PE荧光值 was 210000.
